Assay results from US20200339699A1 (Innovent, published 2020).
Substitutions are numbered along the chain they refer to. Names and notes keep the numbering of the source.

B1: human BCMA-His (receptor)
chain: MLQMAGQCSQNEYFDSLLHACIPCQLRCSSNTPPLTCQRYCNASVTNSVKGTNA
notes: Bought antigen (ACRO BIOSYSTEMS, BCA-H522Y); probably only the extracellular domain stood in the assay; also called hBCMA-His; monovalent human BCMA; not shown: His tag
B2: ADI-34860 (antibody, V domains shown)
VH: QLQLQESGPGLVKPSETLSLTCTVSGGSISSSSYYWGWIRQPPGKGLEWIGSISYSGSTYYNPSLKSRVTISVDTSKNQFSLKLSSVTAADTAVYYCARDRGDTILDVWGQGTMVTVSS
VL: DIQMTQSPSSLSASVGDRVTITCRASQSISSYLNWYQQKPGKAPKLLIYAASSLQSGVPSRFSGSGSGTDFTLTISSLQPEDFATYYCQQKYDLLTFGGGTKVEIK
notes: Yeast-expressed fully human antibody purified on protein A
B3: ADI-34861 (antibody, V domains shown)
VH: B2 VH
VL: B2 VL with S31R, D93F, L94D, L95I
notes: as for B2
B4: human BCMA on NCI-H929 cells (receptor)
chain: MLQMAGQCSQNEYFDSLLHACIPCQLRCSSNTPPLTCQRYCNASVTNSVKGTNAILWTCLGLSLIISLAVFVLMFLLRKINSEPLKDEFKNTGSGLLGMANIDLEKSRTGDEIILPRGLEYTVEECTCEDCIKSKPKVDSDHCFPLPAMEEGATILVTTKTNDYCKSLPAALSATEIEKSISAR
notes: BCMA-positive human multiple myeloma cell line NCI-H929 (ATCC CRL-9068); also called B-cell maturation antigen; CD269
B5: ADI-34854 (antibody, V domains shown)
VH: QVQLVESGGGVVQPGRSLRLSCAASGFTFSSYGMHWVRQAPGKGLEWVAVISYEGSNKYYADSVKGRFTISRDNSKNTLYLQMNSLRAEDTAVYYCARDTSSYGDASYGMDVWGQGTTVTVSS
VL: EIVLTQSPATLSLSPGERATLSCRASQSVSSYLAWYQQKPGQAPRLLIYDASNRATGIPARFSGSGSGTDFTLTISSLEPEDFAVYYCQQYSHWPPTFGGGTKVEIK
notes: as for B2
B6: ADI-34832 (antibody, V domains shown)
VH: QITLKESGPTLVKPTQTLTLTCTFSGFSLSTSGVGVGWIRQPPGKALEWLALIYWNDEKRYSPSLKSRLTITKDTSKNQVVLTMTNMDPVDTAVYYCARDPGEQLQVFDYWGQGTLVTVSS
VL: DIQMTQSPSSVSASVGDRVTITCRASQGISSWLAWYQQKPGKAPKLLIYAASSLQSGVPSRFSGSGSGTDFTLTISSLQPEDFATYYCQQTLSLPITFGGGTKVEIK
notes: as for B2
B7: ADI-34859 (antibody, V domains shown)
VH: B2 VH
VL: B6 VL with V11L, G28S, S30N, W32Y, A34N, T91K, L92A, L94A
notes: as for B2
B8: ADI-34848 (antibody, V domains shown)
VH: EVQLLESGGGLVQPGGSLRLSCAASGFTFDDYAMHWVRQAPGKGLEWVSGISWSSGSIGYADSVKGRFTISRDNAKNSLYLQMNSLRAEDTAVYYCAKDSPRRDSFGSIAFDIWGQGTMVTVSS
VL: not shown
notes: as for B2
B9: ADI-34849 (antibody, V domains shown)
VH: B8 VH with L5V, G16R
VL: EIVLTQSPATLSLSPGERATLSCRASQSVSSYLAWYQQKPGQAPRLLIYDASKRATGIPARFSGSGSGTDFTLTISSLEPEDFAVYYCQQASALPLTFGGGTKVEIK
notes: as for B2
B10: ADI-34850 (antibody, V domains shown)
VH: B8 VH with L5V, G16R
VL: EIVMTQSPATLSVSPGERATLSCRASQSVGSNLAWYQQKPGQAPRLLIYGASTRATGIPARFSGSGSGTEFTLTISSLQSEDFAVYYCQQSVNLPITFGGGTKVEIK
notes: as for B2
B11: ADI-34846 (antibody, V domains shown)
VH: QVQLVQSGAEVKKPGSSVKVSCKASGGTFSNYAISWVRQAPGQGLEWMGGIIPIFGTANYAQKFQGRVTITADESTSTAYMELSSLKSEDTAVYYCARGSGYYSSWLFDIWGQGTMVTVSS
VL: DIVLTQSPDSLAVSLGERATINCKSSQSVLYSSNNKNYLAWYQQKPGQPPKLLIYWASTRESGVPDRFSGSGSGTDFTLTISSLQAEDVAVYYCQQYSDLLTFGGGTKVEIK
notes: as for B2
B12: ADI-34857 (antibody, V domains shown)
VH: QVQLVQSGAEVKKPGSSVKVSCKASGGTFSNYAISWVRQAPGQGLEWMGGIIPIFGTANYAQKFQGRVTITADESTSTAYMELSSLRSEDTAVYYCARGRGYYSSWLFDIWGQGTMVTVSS
VL: DIQMTQSPSSLSASVGDRVTITCQASQDITNYLNWYQQKPGKAPKLLIYDASNLETGVPSRFSGSGSGTDFTFTISSLQPEDIATYYCQQAFDLITFGGGTKVEIK
notes: as for B2

Tests used:
ADI-34848 scFv-hFc [1] = assay: BLI (ForteBio Octet Red96), scFv-hFc on AHC sensors, human BCMA-His in solution
Procedure: The kinetic constants of the antibody molecules were determined based on the biofilm layer interferometry (BLI) of a fiber optic biosensor.
The Fortebio instrument model used in the experiment was Octet Red96, and a ForteBio affinity assay was performed according to the existing method (Estep, P et al., High throughput solution Based measurement of antibody-antigen affinity and epitope binning MAbs, 2013.5 (2): p. 270-8). The assay is specifically as follows: [0317] 1. Half an hour before the experiment, an appropriate number of AHC sensors were taken according to the number of samples and soaked in the SD buffer (50 mL PBS+0.1% BSA +0.05% Tween-20). [0318] 2. SD buffer, scFv-hFc antibodies and human BCMA-His antigens (ACRO BIOSYSTEMS, BCA-H522Y), each of 100 μL were added to a 96-well half-area black polystyrene microplate respectively. [0319] 3. The plates were arranged according to the positions of the samples, the positions of the sensors were selected, and the operation procedures were set as: Baseline, Loading ˜1 nm, Baseline, Association, and Dissociation, each running for a time depending on the binding and dissociation rates of the sample, at a rotation speed of 1,000 rpm and a temperature of 30° C. [0320] 4.

[2] = target: B4; assay: flow cytometry on NCI-H929 cells, yeast-expressed antibody
Procedure: The method is specifically as follows: [0293] 1. A human NCI-H929 (ATCC, CRL-9068) cell suspension was taken, adjusted to a cell density of 2×10⁶ cells/mL, and added to a 96-well microplate at 100 μL/well. The cell suspension was centrifuged at 400 G for 5 min and the supernatant was removed. [0294] 2. The anti-BCMA antibody solution was serially diluted in 3-fold gradient in PBS containing 0.1% bovine serum albumin (BSA) from a concentration of 400 nM for a total of 12 points, 100 μL of the dilution of the antibody was added to each well, and then the plate was incubated at 4° C. for 30 min [0295] 3. The mixture was centrifuged at 400 G for 5 min, and washed twice with PBS, and […] of a dilution of a secondary antibody (a phycoerythrin (PE) labeled goat anti-human IgG antibody, SouthernBiotech, final concentration: 5 μg/mL) in PBS (1% BSA) was added to each well. The plate was incubated at 4° C. for 30 min (in the dark). [0296] 4. Then the resulting solution was centrifuged at 400 G for 5min, and washed twice with PBS, and the cells were resuspended with 100 μL of PBS per well. Flow cytometry was performed on an Accuri C6 system (BD Bioscience) to detect PE positive signals, and MFI was calculated based on C6 software. The EC50 values were calculated using GraphPad software.

ADI-34848 scFv-hFc [3] = assay: flow cytometry on NCI-H929 cells, scFv-hFc

Row | Binder | EC50 [2] | other results
1 | B1 |  | Kd (ADI-34848 scFv-hFc [1]): 71.1 nM; koff (ADI-34848 scFv-hFc [1]): 0.0145 s⁻¹; kon (ADI-34848 scFv-hFc [1]): 204000 M⁻¹ s⁻¹
2 | B2 | 144 nM | 
3 | B3 | 65.1 nM | 
4 | B4 |  | binding result (ADI-34848 scFv-hFc [3]): binds
5 | B5 | 83.2 nM | 
6 | B6 | 34.1 nM | 
7 | B7 | 85.8 nM | 
8 | B8 | 24.8 nM | 
9 | B9 | 9.11 nM | 
10 | B10 | 12.1 nM | 
11 | B11 | 136 nM | 
12 | B12 | 25.2 nM | 
